# B1: Akkermansia muciniphila-derived threonyl-tRNA synthetase (TARS) (protein)
# chain: MSEHKERKTLEERQQMSDLERLRHSCAHVLATAICRLWPDAQLAGGPAVDNGFYYDVELDHRISTEDFERIEEEMKKVVKENQVFQKEVISRADAMKMAESGELGALGPRSEPSRFKIDLLNDIPEDEEISLYRNGDFTDLCAGPHVGRTGNCKAFKIMSVASAFYKGDKNRPMLQRIYGTCFPNRTQLDEHLERLEEARRRDHRKLGRELGLFCIDESVGQGLILWKPKGALIRRSLQDFITEELDKLGYSQVYTPNIGKLDLYRTSGHFPYYQESQYAPIPERDAMEKLSQEGASCAELFNGLATGTIEGYMLKPMNCPHHIKIYANDAHSYRDLPVRLAEFGTVYRWEQSGELGGMTRVRGFTQDDAHIFCTPDQLAGEIRQCLGIVKTIFGTLGMTDYRVRLSMRDPESDKYVGSPENWDKAEQALREAAEWLGADYSEEAGEAAFYGPKIDFIVRDAIGREWQLGTVQVDYNLPERFDLHYTGADNKPHRPVMVHRAPFGSMERFTGLLIEHFEGKFPTWLSPEQVRVLPISDKVTDVAAAHRTALAARGVRVTVDETPDKIGAKIRNARLDRVPYMLVLGQREAEDGTVSVRHRDKGDLGAMPFEQFADLVAREIAERHISPVI
# modifications: Akkermansia muciniphila TARS
# Legend:
# [1] = test system: Tg (NFκB:EGFP) zebrafish transgenic line; assay: NF-κB activity in DSS-treated Tg (NFκB:EGFP) zebrafish larvae; type: in vivo; settings: yolk injection at 3 dpf, 0.5% DSS, analysis at 6 dpf
# Procedure: (A-E) Global gene expression analysis. Total mRNA from BMDMs treated with either AmTARS (0.5 μM) or Pam3 (10 ng ml-1) for 1 or 3 h was isolated and analyzed by RNA sequencing (A). Principle components analysis (PCA) of the gene expression profiles for each sample (B). Hierarchical clustering of gene expression profiles from each sample identified cluster 3 and 4 (C). Gene set enrichment analysis (GSEA) of clusters 3 and 4 with respect to terms related to inflammation (D). […] (F) Overview of the experimental procedures for zebrafish. The yolk of Tg (NFκB:EGFP) transgenic zebrafish larvae (3 dpf) was injected with PBS or AmTARS. Injected larvae were treated at 3 and 5 dpf with 0.5% DSS for 24 h, with a washing period with fresh water for 24 h in between. Sample collection and analysis of Tg (NFκB:EGFP)-based EGFP intensity were conducted at 6 dpf. (G) Representative confocal images showing NF-κB signaling in the mid-distal intestines of PBS- or AmTARS-injected larvae with or without DSS treatment. White dashed lines denote the boundaries of the intestines (based on merged DIC bright field images). (H) Bar graph comparing the fluorescence intensity of the mid-distal intestines of PBS- or AmTARS-injected larvae treated (or not) with DSS (n=32 per PBS group and n=35 per DSS group). […] P-values were calculated by unpaired and two-tailed Student's t-test. […]
# [2] = test system: human macrophages (THP1); assay: ELISA of immune cytokine secretion in LPS-treated THP1 (inflammatory environment); type: cell-based; settings: THP1, LPS-induced inflammation, 0.1, 0.2, 0.5 μM, 24 h
# Procedure: To determine whether AmTARS affects immune cytokine secretion when cellular inflammation was induced, mouse bone marrow-derived macrophages BMDMs as mouse-derived immune cells and human macrophages THP1 as human-derived immune cells were cultured by way of the same method as in Example 2.
# Specifically, the cultured BMDMs and THP1 were treated with lipopolysaccharide (LPS) to induce an inflammatory response and were simultaneously treated with AmTARS at 0.1 μM, 0.2 μM, and 0.5 μM for 24 h to obtain cell cultures. The obtained cell cultures were analyzed for immune cytokine secretion by way of the same method as in Example 2.
# [3] = molecular target: T1, Toll-like receptor 2 (TLR2) (Homo sapiens, UniProt O60603); assay: Pull-down / in vitro interaction assay with TLR2; type: binding
# T1 construct: 13; TLR2; 17; pIRES-FLAG; FLAG; Mammal; FLAG (C); expressed in transfected cells; host or cells: HEK 293T (human)
# T1 sequence (O60603 21-784): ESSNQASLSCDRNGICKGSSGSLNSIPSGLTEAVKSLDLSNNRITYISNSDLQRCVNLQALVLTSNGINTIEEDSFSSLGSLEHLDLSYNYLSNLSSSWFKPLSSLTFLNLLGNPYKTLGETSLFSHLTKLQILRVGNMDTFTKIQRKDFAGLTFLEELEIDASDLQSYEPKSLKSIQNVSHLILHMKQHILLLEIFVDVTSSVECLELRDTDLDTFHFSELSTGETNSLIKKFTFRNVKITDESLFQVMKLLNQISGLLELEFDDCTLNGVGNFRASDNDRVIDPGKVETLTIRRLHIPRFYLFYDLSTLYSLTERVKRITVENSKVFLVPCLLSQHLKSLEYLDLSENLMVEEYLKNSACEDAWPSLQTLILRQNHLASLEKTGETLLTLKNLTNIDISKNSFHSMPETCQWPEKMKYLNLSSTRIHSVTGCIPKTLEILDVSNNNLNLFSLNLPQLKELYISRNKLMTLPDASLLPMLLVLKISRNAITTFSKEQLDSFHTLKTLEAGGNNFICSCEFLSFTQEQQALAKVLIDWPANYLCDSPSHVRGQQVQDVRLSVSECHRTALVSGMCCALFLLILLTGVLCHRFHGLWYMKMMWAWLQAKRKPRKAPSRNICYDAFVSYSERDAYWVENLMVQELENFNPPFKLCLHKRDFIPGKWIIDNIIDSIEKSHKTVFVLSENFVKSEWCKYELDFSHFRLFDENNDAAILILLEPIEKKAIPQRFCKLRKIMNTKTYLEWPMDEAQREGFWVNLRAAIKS
# Procedure: Then, Strep-tagged AmTARS, AmTARS having deletions of two functional site (AmTARSΔ1Δ2), and FLAG-tagged TLR2 were transduced into human-derived HEK 293T cells through PEI, and thereafter, the cells were lysed using a lysis buffer containing 50 mM Tris-HCl (pH 7.5), 100 mM NaCl, 1% NP-40, 1 mM EDTA, 0.25% Na-deoxycholate, and a protease inhibitor cocktail. The cell lysates each were incubated with Strep Tactin beads and washed with a buffer containing 137 mM NaCl, 2.7 mM KCl, 10 mM Na2HPO4, 1.8 mM KH2PO4, and 1 mM EDTA, and proteins attached to the beads were eluted and analyzed by immunoblotting.
# In addition, His-tagged AmTARS and FLAG-tagged protein were mixed at a ratio of 1:2, incubated with Ni-NTA beads, and then washed with a buffer containing 50 mM Tris-HCl (pH 8.0), 300 mM NaCl, 30 mM imidazole, and 1% NP-40, and the proteins attached to the beads were eluted and identified on SDS-PAGE gel.
# [4] = test system: macrophages (F4/80+); assay: Identification of cells targeted by injected AmTARS (flow cytometry of PECs, colon immunofluorescence); type: in vivo, mouse; settings: Mac2 immunofluorescence, His-tagged AmTARS 0.2 mg kg-1, 1 day
# Procedure: To identify the cells targeted by AmTARS, mice with injected i.p. with fluorescently labeled AmTARS, and fluorescence-positive cells in peritoneal exudate cells (PECs), were analyzed by flow cytometry. […] Next, we used a Mac-2 immunofluorescence antibody to test whether i.p.-injected AmTARS targets intestinal macrophages. Intense expression of Mac2 was detected in colonic epithelium, as well as in macrophages located in the lamina propria.
# [5] = test system: TLR2-KO mice with DSS-induced colitis; assay: DSS-induced colitis in TLR2-deficient mice; type: in vivo, mouse
# Procedure: We assessed the role of TLR2 in AmTARS function in vivo. To verify whether the binding between AmTARS and TLR2 actually acted on the anti-inflammatory effect of AmTARS, an inflammatory bowel disease mouse model was prepared from TLR2-deficient mice by way of the same method as in Example 5 and investigated for anti-inflammatory efficacy after the administration of AmTARS. TLR2-KO mice were slightly more susceptible to DSS-induced colitis than WT mice, as reported previously (Rakoff-Nahoum et al., 2004).
# [6] = test system: inflammatory bowel disease mouse model; assay: DSS-induced inflammatory bowel disease mouse model, intramuscular injection; type: in vivo
# Source text: Further, AmTARS was intramuscularly injected into the mouse model to confirm the anti-inflammatory efficacy thereof.
# [7] = test system: BMDMs; assay: M2 macrophage polarization in BMDMs (CD206 flow cytometry); type: cell-based, mouse
# Procedure: Since M2 macrophage polarization precedes production of anti-inflammatory cytokines such as IL-10, we assessed the effects of AmTARS on macrophage polarization. BMDMs were treated with PBS (negative control), LPS (to induce M1 polarization), or IL-4/IL-13 (to induce M2 polarization [positive control]) in the absence and presence of AmTARS, and the resulting M2 macrophage population was measured by flow cytometry using an antibody specific for the M2 macrophage surface marker CD206.
# [8] = intramuscularly injected at 0.4 mg/kg or more
molecule,measurement,setting,value
B1,NF-κB activity in the distal intestine induced by repeated DSS treatment,[1],significantly dampened
same,secretion of IL-6,[2],reduced in a dose-dependent manner
same,secretion of IL-10,[2],increased in a dose-dependent manner
same,secretion of TNF-α,[2],reduced in a dose-dependent manner
same,interaction with TLR2 among candidates tested (pull-down),"[3]; HEK 293T cells, Strep-AmTARS and TLR2-FLAG",interacted only with TLR2
same,direct interaction with TLR2 (in vitro pull-down),"[3]; purified TLR2-FLAG and His-tagged proteins, Ni-NTA",interacts directly with TLR2 via the U2-containing catalytic domain (CD)
same,co-localization of administered AmTARS (His) in the colon,[4],co-localized mainly with macrophages in the lamina propria
same,colitis-induced body weight loss,[5]; TLR2-KO mice,did not improve
same,disease activity score,[5]; TLR2-KO mice,did not improve
same,B cells in the colon,[5]; TLR2-deficient mice,did not show efficacy of increasing B cells in the colon
same,amount of IgA,[5]; TLR2-deficient mice,a significant change in the amount of IgA could not be observed
same,increase in IL-10-secreting macrophage numbers,[5]; colitis TLR2-KO mice,did not induce
same,reduction in pro-inflammatory monocyte numbers,[5]; colitis TLR2-KO mice,did not induce
same,damage to intestinal epithelial cells,[6]; intramuscular injection,alleviate the damage to intestinal epithelial cells
same,intestinal length of the mouse model,[6]; [8],efficacy of decreasing the weight and intestinal length
same,weight of the mouse model,[6]; [8],efficacy of decreasing the weight and intestinal length
same,M2 polarization (CD206+),[7]; LPS-treated BMDMs (M1 polarization),significantly re-polarized LPS-induced M1 macrophages to M2 macrophages
same,M2 polarization (CD206+),[7]; PBS-treated BMDMs,activated M2 polarization
